Paper PMC2173256 (The Journal of Cell Biology, 2002)

What was measured:
Test in all cases: co-IP
[1] = biological target: FLAG XIAP D214S N259D (UniProt P98170 1-497, D214S | N259D)
[2] = biological target: FLAG XIAP N259D E314S (UniProt P98170 1-497, N259D | E314S)
[3] = biological target: FLAG XIAP E314S (UniProt P98170 1-497, E314S)
[4] = biological target: FLAG XIAP D214S H343A (UniProt P98170 1-497, D214S | H343A)
[5] = biological target: FLAG XIAP (X-linked mammalian inhibitor of apoptosis protein), wild-type, full length (UniProt P98170 1-497)
[6] = biological target: FLAG XIAP W310A E314S (UniProt P98170 1-497, W310A | E314S)
[7] = biological target: FLAG XIAP D148A G306S (UniProt P98170 1-497, D148A | G306S)
[8] = biological target: FLAG XIAP V146A E314S (UniProt P98170 1-497, V146A | E314S)
[9] = biological target: FLAG XIAP D148A E314S (UniProt P98170 1-497, D148A | E314S)
[10] = biological target: FLAG XIAP T143A E314S (UniProt P98170 1-497, T143A | E314S)
[11] = biological target: FLAG XIAP D214S (UniProt P98170 1-497, D214S)
[12] = biological target: FLAG XIAP D148A D214S H343A (UniProt P98170 1-497, D148A | D214S | H343A)
[13] = biological target: FLAG XIAP N259D (UniProt P98170 1-497, N259D)
[14] = biological target: FLAG XIAP D148A W310A E314S (UniProt P98170 1-497, D148A | W310A | E314S)
[15] = biological target: FLAG XIAP H343A (UniProt P98170 1-497, H343A)
Chain of FLAG XIAP H343A (P98170 whole entry H343A): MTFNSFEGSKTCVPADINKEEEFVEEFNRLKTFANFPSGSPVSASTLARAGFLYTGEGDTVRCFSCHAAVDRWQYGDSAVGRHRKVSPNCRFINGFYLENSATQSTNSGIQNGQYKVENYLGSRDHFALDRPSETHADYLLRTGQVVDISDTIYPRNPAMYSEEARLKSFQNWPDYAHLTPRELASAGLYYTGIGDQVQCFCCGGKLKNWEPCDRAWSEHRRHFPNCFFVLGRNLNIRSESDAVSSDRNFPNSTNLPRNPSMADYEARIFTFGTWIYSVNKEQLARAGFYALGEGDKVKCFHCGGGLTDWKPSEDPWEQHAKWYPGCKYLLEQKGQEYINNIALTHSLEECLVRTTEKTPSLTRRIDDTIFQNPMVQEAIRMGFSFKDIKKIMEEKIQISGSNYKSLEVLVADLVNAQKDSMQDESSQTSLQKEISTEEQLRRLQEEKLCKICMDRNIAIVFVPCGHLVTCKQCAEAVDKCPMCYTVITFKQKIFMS

Chain of FLAG XIAP D214S (P98170 whole entry D214S): as the sequence (P98170 whole entry H343A) above, with D214S, A343H counted along it
Chain of FLAG XIAP (X-linked mammalian inhibitor of apoptosis protein), wild-type, full length (P98170 whole entry): as the sequence (P98170 whole entry H343A) above, with A343H counted along it
Chain of FLAG XIAP D148A W310A E314S (P98170 whole entry D148A/W310A/E314S): as the sequence (P98170 whole entry H343A) above, with D148A, W310A, E314S, A343H counted along it
Chain of FLAG XIAP D148A E314S (P98170 whole entry D148A/E314S): as the sequence (P98170 whole entry H343A) above, with D148A, E314S, A343H counted along it
Chain of FLAG XIAP W310A E314S (P98170 whole entry W310A/E314S): as the sequence (P98170 whole entry H343A) above, with W310A, E314S, A343H counted along it
Chain of FLAG XIAP V146A E314S (P98170 whole entry V146A/E314S): as the sequence (P98170 whole entry H343A) above, with V146A, E314S, A343H counted along it
Chain of FLAG XIAP D214S H343A (P98170 whole entry D214S/H343A): as the sequence (P98170 whole entry H343A) above, with D214S counted along it
Chain of FLAG XIAP D148A D214S H343A (P98170 whole entry D148A/D214S/H343A): as the sequence (P98170 whole entry H343A) above, with D148A, D214S counted along it
Chain of FLAG XIAP T143A E314S (P98170 whole entry T143A/E314S): as the sequence (P98170 whole entry H343A) above, with T143A, E314S, A343H counted along it
Chain of FLAG XIAP E314S (P98170 whole entry E314S): as the sequence (P98170 whole entry H343A) above, with E314S, A343H counted along it
Chain of FLAG XIAP D214S N259D (P98170 whole entry D214S/N259D): as the sequence (P98170 whole entry H343A) above, with D214S, N259D, A343H counted along it
Chain of FLAG XIAP N259D E314S (P98170 whole entry N259D/E314S): as the sequence (P98170 whole entry H343A) above, with N259D, E314S, A343H counted along it
Chain of FLAG XIAP D148A G306S (P98170 whole entry D148A/G306S): as the sequence (P98170 whole entry H343A) above, with D148A, G306S, A343H counted along it
Chain of FLAG XIAP N259D (P98170 whole entry N259D): as the sequence (P98170 whole entry H343A) above, with N259D, A343H counted along it

DIABLO binding relative to wild-type XIAP (arbitrary value, 10 = 100%) [1]: 9 arbitrary (10 = 100%) | DIABLO binding relative to wild-type XIAP (arbitrary value, 10 = 100%) [2]: 5 arbitrary (10 = 100%) | DIABLO binding relative to wild-type XIAP (arbitrary value, 10 = 100%) [3]: 5 arbitrary (10 = 100%) | DIABLO binding relative to wild-type XIAP (arbitrary value, 10 = 100%) [4]: 8 arbitrary (10 = 100%) | DIABLO binding relative to wild-type XIAP (arbitrary value, 10 = 100%) [5]: 10 arbitrary (10 = 100%) | DIABLO binding relative to wild-type XIAP (arbitrary value, 10 = 100%) [6]: 4 arbitrary (10 = 100%) | DIABLO binding relative to wild-type XIAP (arbitrary value, 10 = 100%) [7]: 8 arbitrary (10 = 100%) | DIABLO binding relative to wild-type XIAP (arbitrary value, 10 = 100%) [8]: 5 arbitrary (10 = 100%) | DIABLO binding relative to wild-type XIAP (arbitrary value, 10 = 100%) [9]: 5 arbitrary (10 = 100%) | DIABLO binding relative to wild-type XIAP (arbitrary value, 10 = 100%) [10]: 5 arbitrary (10 = 100%) | DIABLO binding relative to wild-type XIAP (arbitrary value, 10 = 100%) [11]: 9 arbitrary (10 = 100%) | DIABLO binding relative to wild-type XIAP (arbitrary value, 10 = 100%) [12]: 9 arbitrary (10 = 100%) | DIABLO binding relative to wild-type XIAP (arbitrary value, 10 = 100%) [13]: 10 arbitrary (10 = 100%) | DIABLO binding relative to wild-type XIAP (arbitrary value, 10 = 100%) [14]: 4 arbitrary (10 = 100%) | DIABLO binding relative to wild-type XIAP (arbitrary value, 10 = 100%) [15]: 10 arbitrary (10 = 100%)
B1: processed DIABLO (HA-tagged DIABLO) (natural protein)
chain: AVPIAQKSEPQSLSNEALMRRAVSLVTDSTSTFLSQTTYALIEAITEYTKAVYTLVSLYRQYTSLLGKMNSQEEDEVWQVIIGARVEMTSKQQEYLKLETTWMTAVGLSEMAAEAAYQTGADQASITARNHIQLVKSQVQEVRQLSQKAETKLAEAQTKELHQKAQEVSDEGADQEEEAYLRED
